In PMC4703882 one finds K half data, which are given here for one substance.

In this data set the test system is RAD51 wild type (Homo sapiens). The data set is described as follows: EMSA. As to conditions: 1 mM ATP, 2 mM Ca2+; saturated at 0.8 uM; EMSA: 50 mM Tris-HCl pH 7.5, 100 mM NaCl, 2 mM CaCl2, 1 mM ATP, 1 mM DTT, 5 nM DNA, 5 min at 37 C; 0.8% agarose in 1x TB (dsDNA) or 5% native PAGE in 0.5x TB ….

As to ds-66 bp-AF532, the K half was 300 nM.
